Source: article PMC6260146

Biological target: CR3 (CD11b/CD18) on peripheral blood monocytes (human (endogenous in peripheral blood monocytes)) (UniProt P11215)
Assay: flow cytometry on cells; peripheral blood monocytes preincubated with unlabelled FH5-7 (14 μg/ml, 15 min on ice by the methods; 12 μg/ml, 30 min by the legend) or PBS, then a panel of FITC-, PE- or APC-labeled receptor specific antibodies, 45 min at 4°C; read-out: mean fluorescence of FH5-7 treated cells divided by PBS treated cells

anti-CD11b antibody binding in the presence of FH5-7 relative to without FH5-7 (1.0) (ratio of mean fluorescence): < 0.8
Substance: recombinant fragment FH5-7 of Factor H (domain or fragment)
